# B1: LOC100129726 (parent)
# chain: VHTGCHKKLGPEARRPRTRWGKN
# B2: WEE1 (parent)
# chain: FISRTSIPNAASEEGDEDDWASNK
# Variants of: B1
# Assay: protein stability index of a GFP-peptide fusion (GPS, HEK-293T) (PSI 1-6); higher = more stable
# Conditions: c terminus: native
# 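Also: lentivirally expressed fusions sorted by FACS into six bins by GFP to DsRed ratio, PSI derived from sequencing read proportions per bin multiplied by bin number.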
row,Variant,protein stability index
1,P16S,1.46
2,P16C,1.24
3,P16H,1.39
4,P16E,1.8
5,P16Q,1.03
6,P16G,3.15
7,P16K,3.74
8,P16N,3.05
9,R14K,2.05
10,R14A,3.44
11,R14V,3.24
12,R14Y,3
13,R14W,1.54
14,R14H,2.71
15,R14E,3.01
16,R14C,2.81
17,R14G,4.21
18,R14M,3.01
19,R14F,2.72
20,R14I,3.23
21,C5K,2.27
22,C5F,1.85
23,C5G,2.34
24,C5T,2.35
25,C5V,2.93

row,Variant,protein stability index
1,C5S,1.51
2,C5L,2.41
3,C5P,2.09
4,C5E,2.57
5,C5A,2.57
6,C5I,1.63
7,C5Y,1.98
8,C5W,1.2
9,C5Q,1.54
10,E12F,1.23
11,E12Q,1.75
12,E12Y,2.69
13,E12M,1.47
14,E12R,3.79
15,E12D,2.56
16,E12T,1.42
17,E12K,1.01
18,E12H,2.21
19,E12C,3.61
20,K8M,2.25
21,K8I,1.37
22,K8L,2.63
23,K8E,1.63
24,K8S,2.25
25,K8Q,2.41

row,Variant,protein stability index
1,K8P,2.52
2,K8C,1.65
3,R19L,3.09
4,R19K,1.49
5,R19H,2.59
6,R19W,2.67
7,R19D,5.13
8,R19Y,1.92
9,R19M,2.41
10,R19N,2.5
11,A13E,2.55
12,A13W,2.94
13,A13N,1.94
14,A13R,1.64
15,A13F,2.49
16,K22P,3.43
17,K22T,2.93
18,K22I,4.11
19,G10F,1.66
20,G10P,3.1
21,G10R,2.37
22,G10W,2.17
23,G10M,1.61
24,G10A,3.09
25,G10K,2.05

row,Variant,protein stability index
1,G10I,1.33
2,G10V,1.39
3,G10L,1.22
4,G10Y,1.29
5,T18V,1.29
6,T18I,1.4
7,T18F,2.03
8,T18Y,2.37
9,T18M,2
10,T18S,2.69
11,T18E,3.94
12,T18D,3.96
13,T18G,3.94
14,T18C,1.63
15,T18H,1.7
16,T18A,2.96
17,T18L,3.05
18,T18Q,2.47
19,K7V,1.08
20,K7E,1.87
21,K7H,2.33
22,T3D,3.27
23,T3F,1.95
24,T3P,1.67
25,T3I,2.94

row,Variant,protein stability index
1,T3Y,1.01
2,P11R,1.01
3,P11T,2.67
4,P11A,2.24
5,P11F,2.47
6,P11S,1.53
7,P11D,2.18
8,P11M,2.37
9,P11K,2.05
10,P11V,2.25
11,W20F,2.87
12,W20I,3.89
13,W20C,2.99
14,W20Q,3.66
15,W20L,4.36
16,W20H,2.02
17,W20Y,2.26
18,W20V,3.67
19,W20M,3.15
20,W20A,3.77
21,W20N,4.45
22,W20R,4.73
23,W20G,1.33
24,W20K,5
25,W20T,4.15

row,Variant,protein stability index
1,W20S,4.58
2,W20P,2.01
3,H6M,2.12
4,H6A,1.63
5,H6R,2.85
6,H6S,1.85
7,H6E,1.41
8,H6K,1.38
9,H6Y,2.62
10,H6P,1.77
11,H6G,1.64
12,H6T,1.76
13,N23T,2.35
14,N23F,2.03
15,N23I,1.3
16,N23W,2.27
17,N23L,1.42
18,N23Q,1.63
19,N23S,1.74
20,N23P,2.62
21,N23C,1.61
22,N23D,2.78
23,H2D,1.82
24,H2K,1.94
25,H2Q,2.44

row,Variant,protein stability index
1,H2N,2.5
2,H2M,2.79
3,H2T,1.49
4,H2R,4
5,H2L,2.38
6,H2A,2.13
7,H2G,2.38
8,V1R,2.02
9,V1C,2.12
10,V1S,1.99
11,V1L,1.84
12,V1I,2.54
13,V1E,2.96
14,V1H,2.43
15,L9P,2.92
16,L9N,2.8
17,L9R,2.64
18,L9Q,2.72
19,L9V,2.02
20,R15Q,1.75
21,R15V,1.34
22,R15F,3.27
23,R15E,2.63
24,R15N,2.42
25,R15G,3.43

row,Variant,protein stability index
1,R15I,1.27
2,R15Y,2.06
3,R15L,1.7
4,R15C,1.41
5,R15P,2.75
6,G4V,2.14
7,G4N,1.01
8,G4C,2.51
9,G4E,3.67
10,G4I,2.66
11,G4R,2.47
12,G4P,2.15
13,G4K,2.71
14,G4F,2.72
15,R17L,1.7
16,R17T,2.59
17,R17Q,1.01
18,R17C,1.93
19,R17P,4.37
20,R17A,2.5
21,R17G,2.75
22,R17W,1.66
23,R17N,3.66
24,R17E,2.26
25,R17F,2.48

row,Variant,protein stability index
1,R17S,2.7
2,R17K,1.36
3,G21L,3.56
4,G21I,2.85
5,G21D,4
6,G21F,3.36
7,G21P,4.47
8,G21K,4.43
9,G21W,2.69
10,G21E,4.54
11,G21T,3.57
12,G21A,3.47
13,G21V,2.78
14,G21M,3.89
15,G21C,3.16
16,G21N,4.39
17,G21Q,4.45
18,G21H,4.34

# Variants of: B2
# Assay: as above
# Conditions: c terminus: a fixed tail appended
row,Variant,protein stability index
1,T5Y,2.19
2,T5W,2.71
3,T5Q,3.74
4,T5A,4.19
5,T5K,4.01
6,T5D,4.2
7,T5H,3.21
8,T5E,4.85
9,T5P,4
10,T5R,3.77
11,T5V,3.86
12,T5L,3.6
13,T5F,2.35
14,T5I,3.5
15,T5S,4.01
16,T5G,3.53
17,T5C,3.58
18,T5M,3.3
19,T5N,4.28
20,R4K,3.86
21,R4I,3.85
22,R4T,4.94
23,R4S,4.2
24,R4Q,4.6

row,Variant,protein stability index
1,R4V,4.39
2,R4W,3.67
3,R4M,4.25
4,R4F,3.15
5,R4Y,4.1
6,R4G,4.62
7,R4D,4.92
8,R4E,5.35
9,R4H,4.15
10,R4P,3.68
11,R4L,4.05
12,R4A,3.49
13,R4N,4.64
14,R4C,4.37
15,I7A,4.21
16,I7C,3.83
17,S3H,3.59
18,S3Q,4.09
19,S3T,4.26
20,S3Y,3.37
21,S3W,2.85
22,S3R,4.02
23,S3C,4.11
24,S3D,4.67

row,Variant,protein stability index
1,S3K,4.56
2,S3N,4.62
3,S3P,3.67
4,S3E,4.78
5,S3I,3.21
6,S3A,4.44
7,S3F,3.57
8,S3G,3.17
9,S3V,3.6
10,S3M,4
11,S3L,3.95
12,S6T,3.73
13,S6E,4.86
14,S6G,3.58
15,S6Q,3.89
16,S6L,2.66
17,S6F,1.83
18,S6K,4.27
19,S6I,3.61
20,S6V,3.69
21,S6W,3.48
22,S6P,3.79
23,S6A,3.98
24,S6C,3.95

row,Variant,protein stability index
1,S6M,3.15
2,S6N,4.53
3,S6H,3.48
4,S6D,4.39
5,S6R,3.22
6,S6Y,1.98
7,F1T,5.32
8,F1S,5.84
9,F1Y,4.39
10,F1E,5.46
11,F1D,5.56
12,F1P,5.89
13,F1H,5.37
14,F1V,5.41
15,F1K,5.42
16,F1M,5.24
17,F1L,5.6
18,F1R,4.92
19,F1Q,5.63
20,F1A,5.37
21,F1I,5.73
22,F1N,5.29
23,F1C,5.29
24,F1W,4.88

row,Variant,protein stability index
1,F1G,5.71
2,I2C,3.34
3,I2Y,4.95
4,I2R,5.32
5,I2H,3.36
6,I2N,5.67
7,I2T,4.88
8,I2F,5.38
9,I2G,5.75
10,I2D,5.62
11,I2Q,4.58
12,I2W,4.79
13,I2M,4.84
14,I2A,4.66
15,I2L,5.06
16,I2P,5.21
17,I2E,5.59
18,I2S,5.02
19,I2K,5.46
20,I2V,2.78

# From the supplement of paper PMC10567573
